Experimental data published in patent publication US20240123029A1 (HUMANITAS MIRASOLE S P A, published 2024).

Target: T1, SARS-CoV-2 S1 protein, His Tag (SARS-CoV-2, UniProt P0DTC2 16-685)
T1 construct: domain: S1; Bought
Assay: ELISA, His-tagged viral protein captured on nickel plates (6.25-50 pmol/mL)

B1: Purified C-reactive protein (CRP) (other)
chain: QTDMSRKAFVFPKESDTSYVSLKAPLTKPLKAFTVCLHFYTELSSTRGYSIFSYATKRQDNEILIFWSKDIGYSFTVGGSEILFEVPEVTVAPVHICTSWESASGIVEFWVDGKPRVRKSLKKGYTVGAEASIILGQEQDSFGGNFEGSQSLVGDIGNVNMWDFVLSPDEINTIYLGGPFSPNVLNWRALKYEVQGEVFTKPQLWP
binding result: no binding (tested: CRP 3 µg/mL)
